Data from the nanobody polyreactivity screen of Harvey et al. (2022).

Assay: yeast display, Sf9 membrane polyspecificity reagent, FACS + sequencing; frameworks hold sequencing errors
Summary of the method: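 Genes from sorted yeast were amplified by colony PCR, read by MiSeq 2 × 250 sequencing and filtered on CDR length. These cells carried a synthetic nanobody library in Saccharomyces cerevisiae BJ5465 and were sorted by FACS into low and high (top ~1%) gates on anti-HA and streptavidin fluorescence. Polyreactivity is labelled according to the gate of origin.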

Row | Sequence | polyreactivity (PSR sort gate)
1 | QVQLVESGGGLVQAGGSLRLRCAASGFTLLWNSMGWYRQAPGKEREFVAVISSGGSTNYADSVKGRFTISRDNAKNTVYLQMNSLKPEDTAVYYCATRRPSSSSAAAWFYYWGQGTQVTVSS | low polyreactivity
2 | QVQLVESGGGLLQAGGSLRLSCAASGSTFDIYAMGWYRQAPGKERELVAVISGGDGSTYYADSVKGRFTISRENAKNTVYLQMNSLKPEDTAVYYCAADDISPGYWDGEYDCWGQGTQVTVSS | low polyreactivity
3 | QVQLVESAGGLVQAGGSLRLSCAASARTFGAYAMGWYRQAPGNERELVATITVSGGSTYYADSVKGRFTISRENAKNTVYLPMNSLKPEDTAVYYCAAAYDWWQFYSWTIAYDYWGQGTQVTVSS | low polyreactivity
4 | QVQLVESGGGLVQAGGSLRLSCAASGNTFYRYAMGWNRQAPGKERELVAAISNGGSTNYADSVKGRFTISRDNAKNTVYLQMNSLKPEDSAVYYWAAANTRRYTHGFWGHGTQVTVSS | high polyreactivity
5 | QVQLVESGGGLVQAAGSLRVSCAASGSIFYGYAMGGYRKAPGKERELVAAITTVGSTYADSVKGRFTISRDNAKNTVYLQMNSLKPEDTAVYYCNARDYERTRRYLIVYSRYGYWGHGTQVTVSS | low polyreactivity
6 | QVQLVESGGGLVQAGGSLRLSCAASGRTFPGNAMGGYRQAPGKERELVAAISSRGGSTYYADSVKGRFTISRDNAKNTVNLQMKSLKPEDTAVYYCNAASNYRVRRTYHGDYWGLGTQVTVSS | high polyreactivity
7 | QVQLVESGGGLVQAGGSLRLSCAASGRTFGSYAMGWYRQAPGKERELVAAITTDASTNYADSVKGRFTISRDNAKNTVYLQMNSLKPEDTAVYYCAKRKRTNYGFWGQGTQVTVSS | low polyreactivity
8 | QVQLVESGGGLVQAGGSLRLSCAASGRIFSFNAMGWYRQAPGKERELVAAISWSTGSTFYADSVKGRFTISRDNAKNTVYVQMNSLKPEDTAFYYCAREYYYRRGFFLRGYWGQGTQVTVSS | high polyreactivity
9 | QVQLVESGGVLVQAGGSLRLSCAASVFIFPYYAMGRYRQEPGKEMELVAAISSGGITNYADSVKGRFTISRDNSKNTVYLQMNSLKPEDTAVYYCAAKRRVGNFRYGYWGQGTQVTVSS | high polyreactivity
10 | QVQLVESGGGLVQAGGSLRLSCAASGIIFWDYAMGWYSQAPGKERELVAAISSSGSTTYYADSVKGRFTISRDNAKNTVYLQMNSLKPEDTAVYYCAAESLYEDDKGDYWGQGTQVTVSS | high polyreactivity
11 | QVQLVESGGGLVQAGGSLRLSCAASGRIFDGYAMGWYRQAPGQERELVAAISSRGGRTYYADSVKGRFTISRDHAKNTVYLQMNSLKPEDTAVYYCAADDPYGEGDYWGQGTQVTVSS | low polyreactivity
12 | QVQLVESGGGLVQAGGSLRLSCAASGSTFNGYVMGWYRQAPGKERELVAAISRSGGSTYYADSVKGRFTISRDNAKNTVYLQMNSLKPEDTAVYYCAVQRKSSKRAFRYGYWGQGTQVTVSS | high polyreactivity
13 | QVKLVESGGGLVQAGGSLRLTCAASGFTFTPNAMGWYRQAPGKEMELVAAITRSSGRTYYADSVKGRFTISRDNAKNTVYLQMNSLKPEDTAVYYCAARYASTPYARFGFWGQGTQVTVSS | high polyreactivity
14 | QVQLVESGGGLVQAGGSLRLSCAASVSIFQVYAMGWYRQAPGKERELVAAITWSAGSTYADSVKGRFTISRDNAKNTVYLQMNSLKPEDTAVYYSAAYPYVGYVSFSAYDYWGQGTQVTVSS | low polyreactivity
15 | QVQLVESGGGLVQAGGSLRLSCAASGFTFYWYAMGWYRQAPGKERELVAAISNRGGSTYYADSVKGRFTISRDNAKNTVYLQMNSLKPEDTAVYYCATESRGVGAARYDYWGQGTQVTVSS | high polyreactivity
16 | QVQLVESGGGLVQAGGSLRLSCAASGSTFPYNAMGWYRQAPGKERELLAAISWRGGRTYYADSVKGRFTISRDNAKNTVYLQMNSLKPEYTGVFYCAVVLSTYSYADYDYWGQGTHVTVSS | high polyreactivity
17 | QVQLVESGGGLVQARGSLRLSCAASGFTFDQYTMGWYRQAPGKERELVAAISSSGGSTYYADSVKGRFTISRDNAKKTVYLQMNSLKPEDTAVYYCAARFLLTQRFSHDYWGQGTQVTVSS | low polyreactivity
18 | QVQLVESGGGLVQAGGSLRLSCAASGRTFYKYVMVWYRQAPGKERELVAAITRSGGRTYYADSVKGRFTISRDNAKNTVYLHMNSLKPEDTAVYYCAAASYSGHGRYDYWGQGTQVTVSS | high polyreactivity
19 | QVQLVESGGGLVQAGGSLRLSCAASGSTFWIYAMGWYIQAPGTERELVAAITLRSGSTYYADSVKGRFTISRDNAKNTVYLQMISLKPEDTAVYYCATDSWGVDRPNYNYWGQGTQVTVSS | low polyreactivity
20 | QVQLVESGGGIVQAGGSLRLSCAASGRTFQFYAMGWYRQEPGKERELVASITWSPVRTYYADSVKGRFTNSRDNAKNTVYLQMNSLKQEDTAVYSCAIDWDYRLMDYWGQGTQVTVSS | low polyreactivity
21 | QVQLVESGRGLVQAGGSLRLSCAASGSTFAGYVMGWYRQAPGKERELVAAISGRGGNTYYADSVKGRFTISRDNAKNTVYIQINSLKPADTAVYYCAANLSRRYGYWGQGTQVTVSS | high polyreactivity
22 | QVQLVESGGGLVQAGGSLRLSCAASGNIFYPNAMGGSRQAPGKERGLVAAISSSGGSTYYADSVKGRFTISRDNAKNTVYLQINSLKPEDTAVYYCAKDRSYAYYWSPYPTGYDYWGQGTQVTVSS | low polyreactivity

Row | Sequence | polyreactivity (PSR sort gate)
23 | QVQLVESGGGLVQAGGSLPLSCAASGSIFKTYAMGWYREAPGKERELVAAIRDSGDRTYYADSVKGRFTISRDNAKNTVYLQMNSLKPEDTAVYYCNARWQEALKYDYWGQGTQVTVSS | low polyreactivity
24 | QVQLVESGGGLVQAGGSLRISCAASGRISVFNVMGWYIQAPGKERELVAAITSGGSTKYADSVKGRFTISRDNAKNTVYLQMNSLKPEDTAVYYCAALYQFHGKIWDGDYWGQGTQVTVSS | low polyreactivity
25 | QVQLVESGGGLVQAGGSLRLSCAASGFIFGLNAMGWYRQAPGKERELVAVIAFSGGSTYYADSVKGRFTISRDHAKNTVYLQMNSLKPEDTAVYYCNAVTRYPHPREYDYWGQGTQVTVSS | high polyreactivity
26 | QVQLVESGGGLVQAGGSLRLSCAASGRIVWYAMGWYRQAPGKERELVAAINWSGGSTYYADSVKGRFTISRDNAKNTVYLQMNSLKPEDTAVYYCAADVRNYWLEYEYWGQGTQVTVSS | low polyreactivity
27 | QVQLVESGGGLVQAGGSLRLSCAASGLTFPYYAMGWYRQAPGTERELVAAISGGGRTYYADSVKGRFTISRDNAKNTVYLQMNSLKPEDTAVYYCAPFHVGRYTGTVTDGYDYWGQGTQVTVSS | high polyreactivity
28 | QVQLVESGGGLVQAGGSLRLSCAASGITVNSYAMGWYRQAPGKERELVAAISGSGSSTYYADSVKGRFTISRDNAKNTVYLQMNSLKPEDTAVYYCAATGFSSWTYYTHEYWGQGTQVTVSS | low polyreactivity
29 | QVQLVESGGGLVQAGGSLRLSCAASGFIFYFYAMGWYRQAPWKERELVAAISSGGSTNYADSVKGRFTISRDNAKNTVYLQMISLKPEDTAVYYCARKTSSYFGHYYYWGQGTQVTVSS | low polyreactivity
30 | QVQLVESGGGLVQAGGSLRLSCAASGRTFYDYAKGWYRQAPGKERELVASITYYADSVKGRFTISRDNAKNTVYLQMNSLKPEDTSVYYCAKDLYSNDLYRRYDYWGQGTQVTVSS | low polyreactivity
31 | QVQLVESGGGLVQAGGSLRLSCAASGRNFYVYAMGWYRQAPGKEREFVASITVSGSSTYYADSVKGRFTISRDNAKNTVYLQMNSLKPEDTAVYYCNTDAVRSYVWWGTSLYDYWGQGTLVTVSS | low polyreactivity
32 | QVQLVESGGGLVQAGGSLRLSCAASGSIFYLYAMGWYRPAPGKERELVAAISSGGSTYYADSVKGRFTISRDNAKNTVYLQMNSLKPEDTAVYYCNADSYYYPYDYWGQGTQVTVSS | low polyreactivity
33 | QVQLVESVGGLVQAGGSLRLSCAASGSIFAGYAMGWYRQAPGKERELVAAISRRGGRTYYADSVKGRFTISRDIAKNTVYLQMNSLKPEVTAVYYCNRDYRRSTGSPEYDYWGQGTQVTVSS | high polyreactivity
34 | QVQLVESGGGLVQAGGSLRLSCAASGSIFVGYAMGWYRQAPGKERELVAAITGSGTRTYYADSVKGRFTISRDNAKNTVYLQMNSLKPEDTAVYYCAAPLSYKNVKYDYWGQGTQVTVSS | low polyreactivity
35 | QLQLVESGGGLVQAGGSLRLSCAASGYTFYRYAMGWYRQAPGKERELVAAISSAGTTNYADSVKGRFTISRDNAKKTVYFQMNSLKPEDTAVYYCNKRGRNHNSLKYGYWGQGTQVTVSS | high polyreactivity
36 | QVQLVESGGGLVQAGGSLRLSCAASGRIFPRYAMGWYRQAPGKERELVARITRRGGITYYADSVKGRFTISRDNAKNTVYLQMNSLTPEDTAVYYCNVDYYRGGDFSYGYDYWGQGTQVTVSS | high polyreactivity
37 | QVQLVESGGGLVQAGGSLRLSCAASGLTFLDYAMGWYRQAPGKERELVAAITSGGSTNYADSVKGRFTISRDNAKNTVYLQMNSLKPEDTAVYYCATDLEVSAYDYWGQGTQVTVSS | low polyreactivity
38 | QVQLVESGGGLVQAGGSLRLSCAASGSTFKFYAMGWYRQAPGKARELVASITSSSGPTYYADSVKGRFTISRDNAKNTVYLQMNSLKPEDPAVYYCNKDWRRYWLRGDYWGQGTQVTVSS | low polyreactivity
39 | QVQLVESGGGLDQAGGSLRLSCAASGIIFYVNDMGWYRQAPGKERELVADISGGTSTNYADSVKGRFTISRDNAKNTVYLQMNSLKPEDTAVYYCATAFIVPFPGSDYCGQGTQVTVSS | low polyreactivity
40 | QVQLVESGGGLVQAGGSLRLSCAASGFIFSYYAMVWYRQAPGTERELVAAISSSGSRTYYADSVKGRFTISRDNAKNTVYLQMNSLKPEDTAVYYCAARGAAKYGYWGQGTQVTVSS | high polyreactivity
41 | QVQLQESCGGLVQVGGSLRLSCAASVTIFIYGFLGWYRQAPGKERELVASINLGGITNYADSVKGRFTISRDNANNTVYLQMISLKPEDTAVYYCAAYVVTGQNYGYWGQGTQVTVSS | low polyreactivity
42 | QVQLVESGGGLVQAGGILRLSCAASGRIFRGYAMVWYRQAPGKERELVAAISNGGGTNYADSVKGRFTISRDNAKNTVYLQMNSLKPEDTAVYYFATGFLQNYYKYTSSFRFYYWGQGTQVSVSS | high polyreactivity
43 | QVQLVESGGGLVQAGGSLRLSCAASGPTFLVNAMGWYRQAPGKERELVATINWNAGSTYYADSVKGRFTISRDYAKNTVYLQMNSLKPEDTAVYYCAAPYEQAPTTDVSSLIPLHDYWGQGTQVTVSS | low polyreactivity
